T1: endogenous 14-3-3ζ (YWHAZ) (human (endogenous in A549)), P63104
T1 chain: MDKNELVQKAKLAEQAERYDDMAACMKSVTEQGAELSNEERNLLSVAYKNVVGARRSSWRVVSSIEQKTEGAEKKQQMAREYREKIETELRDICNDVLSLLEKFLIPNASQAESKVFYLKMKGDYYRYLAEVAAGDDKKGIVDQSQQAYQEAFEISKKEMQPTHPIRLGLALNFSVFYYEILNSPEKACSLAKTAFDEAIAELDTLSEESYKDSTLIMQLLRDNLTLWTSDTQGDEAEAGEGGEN

T2: untagged 14-3-3ζ, overexpressed, P63104
T2 chain: T1 chain

B1: endogenous 14-3-3ζ (YWHAZ), P63104 1-245 (natural protein)
chain: T1 chain
B2: untagged 14-3-3ζ, overexpressed, P63104 1-245 (natural protein)
chain: T1 chain

Legend:
[1] = target: T1, endogenous 14-3-3ζ (YWHAZ) (human …); test: native gel or EMSA; conditions: remark: other sources report otherwise
[2] = target: T2, untagged 14-3-3ζ, overexpressed, P63104; test: native gel or EMSA; conditions: remark: other sources report otherwise

| Binder | stoichiometry N [1] | stoichiometry N [2] |
| --- | --- | --- |
| B1 | 2 | – |
| B2 | – | 2 |

— paper PMC7160556
